# Assay results reported in patent US20220406376A1 (MacroGenics, published 2022).
# B1: hCD137 MAB-3 (1B.10) (antibody, V domains shown)
# VH: QVQLVQSGAEVKKPGASVKVSCKASGYTFTSYWINWVKQAPGQGLEWIGNIYPSDSYTNYNQKFKDKATITADKSTSTAYMELSSLRSEDTAVYYCTRDYGSAYSMSTWGQGTTVTVSS
# VL: DIQMTQSPSSLSASVGDRVTITCRPSQDISNYLNWYQQKPDKTVKLLIYYTTRLRSGVPSRFSGSGSGTDFTFTISSLQPEDIATYFCQQGDTLPYTFGQGTKLEIK
# B2: hCD137 MAB-3 (1G.7) (antibody, V domains shown)
# VH: QVQLVQSGAEVKKPGASVKVSCKASGYTFTSYWINWVRQAPGQGLEWAGNIYPSDSYTNYNQKFKDKATITADKSTSTAYMELSSLRSEDTAVYYCTRDYGSAYSMSTWGQGTTVTVSS
# VL: DIQMTQSPSSLSASVGDRVTITCQASQDISNYLNWYQQKPDKTAKLLIYYTSRLRSGVPSRFSGSGSGTDFTFTISSLQPEDIATYFCQQGDTLPYTFGQGTKLEIK
# B3: hCD137 MAB-3 (1G.4) (antibody, V domains shown)
# VH: QVQLVQSGAEVKKPGASVKVSCKASGYTFTSYWINWVRQAPGQGLEWAGNIYPSDSYTNYNQKFKDKATITADKSTSTAYMELSSLRSEDTAVYYCTRDYGSAYSMSTWGQGTTVTVSS
# VL: DIQMTQSPSSLSASVGDRVTITCQASQDISNYLNWYQQKPDKTVKLLIYYTSRLRSGVPSRFSGSGSGTDFTFTISSLQPEDIATYFCQQGDTLPYTFGQGTKLEIK
# B4: hCD137 MAB-3 (1E.4) (antibody, V domains shown)
# VH: QVQLVQSGAEVKKPGASVKVSCKASGYTFTSYWINWVRQAPGQGLEWIGNIYPSDSYTNYNQKFKDKATITADKSTSTAYMELSSLRSEDTAVYYCTRDYGSAYSMSTWGQGTTVTVSS
# VL: DIQMTQSPSSLSASVGDRVTITCQASQDISNYLNWYQQKPDKTVKLLIYYTSRLRSGVPSRFSGSGSGTDFTFTISSLQPEDIATYFCQQGDTLPYTFGQGTKLEIK
# B5: hCD137 MAB-3 (1B.5) (antibody, V domains shown)
# VH: QVQLVQSGAEVKKPGASVKVSCKASGYTFTSYWINWVKQAPGQGLEWIGNIYPSDSYTNYNQKFKDKATITADKSTSTAYMELSSLRSEDTAVYYCTRDYGSAYSMSTWGQGTTVTVSS
# VL: DIQMTQSPSSLSASVGDRVTITCRPSQDISNYLNWYQQKPDKTAKLLIYYTSRLRSGVPSRFSGSGSGTDFTFTISSLQPEDIATYFCQQGDTLPYTFGQGTKLEIK
# B6: hCD137 MAB-3 (1B.13) (antibody, V domains shown)
# VH: QVQLVQSGAEVKKPGASVKVSCKASGYTFTSYWINWVKQAPGQGLEWIGNIYPSDSYTNYNQKFKDKATITADKSTSTAYMELSSLRSEDTAVYYCTRDYGSAYSMSTWGQGTTVTVSS
# VL: DIQMTQSPSSLSASVGDRVTITCRPSQDISNYLNWYQQKPDKTVKLLAYYTGRLRSGVPSRFSGSGSGTDFTFTISSLQPEDIATYFCQQGDTLPYTFGQGTKLEIK
# B7: hCD137 MAB-3 (1E.3) (antibody, V domains shown)
# VH: QVQLVQSGAEVKKPGASVKVSCKASGYTFTSYWINWVRQAPGQGLEWIGNIYPSDSYTNYNQKFKDKATITADKSTSTAYMELSSLRSEDTAVYYCTRDYGSAYSMSTWGQGTTVTVSS
# VL: DIQMTQSPSSLSASVGDRVTITCRPSQDISNYLNWYQQKPDKTVKLLIYYTSRLRSGVPSRFSGSGSGTDFTFTISSLQPEDIATYFCQQGDTLPYTFGQGTKLEIK
# B8: TRIDENT-2 (other)
# chain 1: DIQMTQSPSTLSASVGDRVTITCRASQSVGYMHWYQQKPGKAPKLLIYDTSKLASGVPSRFSGSGSGTEFTLTISSLQPDDFATYYCFQGSGYPFTFGGGTKLEIKGGGSGGGGEVKLDETGGGLVQPGRPMKLSCVASGFTFSDYWMNWVRQSPEKGLEWVAQIRNKPYNYETYYSDSVKGRFTISRDDSKSSVYLQMNNLRVEDMGIYYCTGSYYGMDYWGQGTSVTVSSASTKGEVAACEKEVAALEKEVAALEKEVAALEKGGGDKTHTCPPCPAPEAAGGPSVFLFPPKPKDTLMISRTPEVTCVVVDVSHEDPEVKFNWYVDGVEVHNAKTKPREEQYNSTYRVVSVLTVLHQDWLNGKEYKCKVSNKALPAPIEKTISKAKGQPREPQVYTLPPSREEMTKNQVSLWCLVKGFYPSDIAVEWESNGQPENNYKTTPPVLDSDGSFFLYSKLTVDKSRWQQGNVFSCSVMHEALHNHYTQKSLSLSPGK
# chain 2: DVVMTQTPFSLPVSLGDQASISCRSSQSLVHSNGNTYLRWYLQKPGQSPKVLIYKVSNRFSGVPDRFSGSGSGTDFTLKISRVEAEDLGVYFCSQSTHVPWTFGGGTKLEIKGGGSGGGGQVTLRESGPALVKPTQTLTLTCTFSGFSLSTSGMSVGWIRQPPGKALEWLADIWWDDKKDYNPSLKSRLTISKDTSKNQVVLKVTNMDPADTATYYCARSMITNWYFDVWGAGTTVTVSSASTKGKVAACKEKVAALKEKVAALKEKVAALKE
# heavy: QVQLVQSGAEVKKPGASVKVSCKASGYTFTNYGMNWVRQAPGQGLEWMGWINTNIGEPTYTEEFKGRVTMTRDTSISTAYMELSRLRSDDTAVYYCARDDGYGNRVSYWGQGTLVTVSSASTKGPSVFPLAPSSKSTSGGTAALGCLVKDYFPEPVTVSWNSGALTSGVHTFPAVLQSSGLYSLSSVVTVPSSSLGTQTYICNVNHKPSNTKVDKRVEPKSCDKTHTCPPCPAPEAAGGPSVFLFPPKPKDTLMISRTPEVTCVVVDVSHEDPEVKFNWYVDGVEVHNAKTKPREEQYNSTYRVVSVLTVLHQDWLNGKEYKCKVSNKALPAPIEKTISKAKGQPREPQVYTLPPSREEMTKNQVSLSCAVKGFYPSDIAVEWESNGQPENNYKTTPPVLDSDGSFFLVSKLTVDKSRWQQGNVFSCSVMHEALHNRYTQKSLSLSPGK
# light: DIQMTQSPSSLSASVGDRVTITCKASQDISNYLSWFQQKPGKAPKTLIYRANRLQSGVPSRFSGSGSGTDFTLTISSLQPEDFATYYCLQHDEFPWTFGQGTKLEIKRTVAAPSVFIFPPSDEQLKSGTASVVCLLNNFYPREAKVQWKVDNALQSGNSQESVTEQDSKDSTYSLSSTLTLSKADYEKHKVYACEVTHQGLSSPVTKSFNRGEC
# notes: also called RSV×FITC×HER2 control molecule; TA×FITC×RSV control molecule
# Biological target: T1, extracellular portion of human CD137 fused to a histidine-containing peptide (human, UniProt Q07011 24-186)
# T1 construct: extracellular domain; also called huCD137; His-tagged soluble human CD137
# Assay: Attana Cell A200 QCM; antibody captured by anti-human IgG Fc; soluble human CD137-His; grade relative to (1B.3)
row,Binder,binding result
1,B1,binds
2,B2,binds
3,B3,binds
4,B4,binds
5,B5,binds
6,B6,binds
7,B7,binds

# Biological target: T2, HER2/neu on the surface of target cells (N87, JIMT-1, MCF-7, MDA-MB231) (UniProt P04626 23-1255, limits assumed)
# T2 construct: whole, on cells
# Assay: flow cytometry on N87 cells, anti-hFc APC MFI
row,Binder,EC50 (read off the curve)
1,B8,~1 nM

# Biological target: T2, HER2/neu on the surface of target cells …
# Assay: flow cytometry on MCF-7 cells, anti-hFc APC MFI
row,Binder,EC50 (read off the curve)
1,B8,~0.2 nM

# Biological target: T2, HER2/neu on the surface of target cells …
# Assay: flow cytometry on JIMT-1 cells, anti-hFc APC MFI
row,Binder,EC50 (read off the curve)
1,B8,~0.7 nM
